Experimental data taken from publication PMC4694547.

Molecular target: HydABCD unit of the synthetic Caldanaerobacter subterranus NADH-dependent [FeFe]-hydrogenase complex (with HydC^His) (Caldanaerobacter subterranus subsp. tengcongensis)
Experiment: SEC-MALS; IMAC-purified enzyme on a MAbPac SEC-1 column, 50 mM Tris.HCl pH 7.5, 150 mM NaCl, 0.5 ml/min; peak fraction analysed by SDS-PAGE

stoichiometry N: 2
Substance: HydABCD unit of the synthetic Caldanaerobacter subterranus NADH-dependent [FeFe]-hydrogenase complex (with HydC^His)
